In patent US20260069689A1 (Regeneron, published 2026):
Like-named read-outs stand apart in the source and are kept apart here.

What was measured:
SARS-COV-2 RBD-MMH [1] = molecular target: SARS-COV-2 RBD-MMH (SARS-CoV-2); test: SPR 37C, run with dissociation at pH 7.4
[2] = molecular target: T1, human FcγR3a 176Val allotype receptor (human, UniProt P08637 17-254); test: cell-based or functional assay
SARS-COV-2 RBD-MMH [3] = molecular target: SARS-COV-2 RBD-MMH (SARS-CoV-2); test: SPR 37C, run with dissociation at pH 5.0
SARS-COV-2 RBD-MMH [4] = molecular target: SARS-COV-2 RBD-MMH (SARS-CoV-2); test: SPR 37C
[5] = molecular target: T1, human FcγR3a 176Val allotype receptor; test: cell-based or functional assay; remark: listed apart in the source

| Binder | RBD.mmh Bound at pH 7.4 (RU) (SARS-COV-2 RBD-MMH [1]) | koff (SARS-COV-2 RBD-MMH [1]) [s⁻¹] | EC50 (M), Jurkat/CD20/spike [2] [M] | Fold induction, Jurkat CD20 [2] [fold] | Fold induction, Jurkat/CD20/spike [2] [fold] | RBD.mmh Bound at pH 7.4 (RU) (SARS-COV-2 RBD-MMH [3]) | koff (SARS-COV-2 RBD-MMH [3]) [s⁻¹] | t½ (SARS-COV-2 RBD-MMH [3]) [min] | t½ Ratio of pH 7.4 to pH 5.0 (SARS-COV-2 RBD-MMH [4]) | EC50 (M), Jurkat/CD20/spike [5] [M] | Fold induction, Jurkat CD20 [5] [fold] | Fold induction, Jurkat/CD20/spike [5] [fold] | EC50 (M), Jurkat CD20 [2] [M] |
| --- | --- | --- | --- | --- | --- | --- | --- | --- | --- | --- | --- | --- | --- |
| mAb14282 (antibody) heavy: not shown light: QSALTQPASVSGSPGQSITISCTGTSSDVGSYNLVSWYQQHPGKAPKLMIYELTKRPSGVSNRFSGSKSGNTASLTISGLQAEDEADYYCSSYRGSVTDVVFGGGTKLTVLGQPKAAPSVTLFPPSSEELQANKATLVCLISDFYPGAVTVAWKADSSPVKAGVETTTPSKQSNNKYAASSYLSLTPEQWKSHRSYSCQVTHEGSTVEKTVAPTECS | 73.5 | 0.0126 | 2.57e-10 | 1.1 | 10.7 | 62.4 | 0.00671 | 1.7 | 0.5 |  |  |  |  |
| mAb14289 (antibody) heavy: not shown light: EIVLTQSPGTLSLSPGERATLSCRASQSVSSYLAWYQQKPGQAPRLLIHGASSRATGIPDRFSGSGSGTDFTLTISRLEPEDFAVYYCQQYGSSFLTFGGGTKVEIKRTVAAPSVFIFPPSDEQLKSGTASVVCLLNNFYPREAKVQWKVDNALQSGNSQESVTEQDSKDSTYSLSSTLTLSKADYEKHKVYACEVTHQGLSSPVTKSFNRGEC | 86.1 | 0.00185 | 1.3e-10 | 1 | 6.3 | 89.3 | 0.0046 | 2.5 | 2.5 |  |  |  |  |
| mAb14281 (antibody) heavy: not shown light: SSELTQDPAVSVALGQTVRITCQGDSLRSYYASWYQQKPGQAPVLVIYDKNNRPSGIPDRFSGSSSGNTASLTITGAQAEDEADYYCNSRDSSRNHLVVFGGGTKLTVLGQPKAAPSVTLFPPSSEELQANKATLVCLISDFYPGAVTVAWKADSSPVKAGVETTTPSKQSNNKYAASSYLSLTPEQWKSHRSYSCQVTHEGSTVEKTVAPTECS | 83.5 | 0.00659 | 1.65e-10 | 1.1 | 10.3 | 51.7 | 0.0117 | 1 | 1.8 |  |  |  |  |
| mAb14284 (antibody, also called REGN14284) heavy: not shown light: QSALTQPASVSGSPGQSITISCTGTSSDLGVFNYVSWYQQHPGKAPKLMIYEVTNRPSGVSNRFSGSKSGNTASLTISGLQAEDEADYYCSSYTTSSTVFGGGTKLTVLGQPKAAPSVTLFPPSSEELQANKATLVCLISDFYPGAVTVAWKADSSPVKAGVETTTPSKQSNNKYAASSYLSLTPEQWKSHRSYSCQVTHEGSTVEKTVAPTECS | 147 | 0.000624 | 1.56e-10 | 1.1 | 9 | 159 | 0.000736 | 15.7 | 1.2 |  |  |  |  |
| mAb14255 (antibody) heavy: not shown light: QSALTQPASVSGSPGQSITISCTGTSSDVGSYNLVSWYQQHPGKAPKLMIYEDSKRPSGVANPFSGSKSGNTASLTISGLQAEDEADYYCSSYAGSSTWVFGGGTKLTVLGQPKAAPSVTLFPPSSEELQANKATLVCLISDFYPGAVTVAWKADSSPVKAGVETTTPSKQSNNKYAASSYLSLTPEQWKSHRSYSCQVTHEGSTVEKTVAPTECS | 97.5 | 0.00493 | 1.67e-10 | 1 | 9.5 | 94.1 | 0.00635 | 1.8 | 1.3 | 1.88e-10 | 1.1 | 3.2 |  |
| mAb14294 (antibody) heavy: not shown light: EIVLTQSPGTLSLSPGERATLSCRASQSVSSSQLAWYQQKPGQAPRLLIYGASSRATGIPDRFSGSGSGTDFTLTISRLEPEDFAVYYCQQYDSFGQGTKLEIKRTVAAPSVFIFPPSDEQLKSGTASVVCLLNNFYPREAKVQWKVDNALQSGNSQESVTEQDSKDSTYSLSSTLTLSKADYEKHKVYACEVTHQGLSSPVTKSFNRGEC | 83.2 | 0.00092 | 6.04e-11 | 1 | 10.5 | 97.6 | 0.000452 | 25.5 | 0.5 |  |  |  |  |
| mAb14283 (antibody) heavy: not shown light: QSALTQPASVSGSPGQSTTISCTGTSSDVGGYNYVSWYQQYPGKAPKLMIYDVTNRPSGVSHRFSGSKSGNTASLTISGLQAEDEADYYCSSYTSSSTVIFGGGTKLTVLGQPKAAPSVTLFPPSSEELQANKATLVCLISDFYPGAVTVAWKADSSPVKAGVETTTPSKQSNNKYAASSYLSLTPEQWKSHRSYSCQVTHEGSTVEKTVAPTECS | 87.7 | 0.00169 | 1.39e-10 | 1.1 | 9.1 | 91.7 | 0.00512 | 2.3 | 3 |  |  |  |  |
| mAb14286 (antibody) heavy: not shown light: QSALTQPASVSGYPGQSITISCTGTSSDVGGYNYVSWYQQHPGKAPKLMIFDVSNRPSGVSNRFSGSKSGNTASLTFSGLQAEDEADYYCSSYTSSSTLVFGGGTKLTVLGQPKAAPSVTLFPPSSEELQANKATLVCLISDFYPGAVTVAWKADSSPVKAGVETTTPSKQSNNKYAASSYLSLTPEQWKSHRSYSCQVTHEGSTVEKTVAPTECS | 84.3 | 0.00968 | 2.04e-10 | 1 | 11 | 82.4 | 0.00664 | 1.7 | 0.7 |  |  |  |  |
| mAb14315 (antibody) heavy: not shown light: EIVLTQSPGTLSLSPGERATLSCRASQSVSSNYLAWYQQKPGQAPRLLIYGASSRATGIPERFSGSGSGTDFTLTISRLEPEDFAVYYCQQYGSSLYTFGQGTKLEIKRTVAAPSVFIFPPSDEQLKSGTASVVCLLNNFYPREAKVQWKVDNALQSGNSQESVTEQDSKDSTYSLSSTLTLSKADYEKHKVYACEVTHQGLSSPVTKSFNRGEC | 83.3 | 0.00098 | 6.24e-11 | 1.1 | 9.3 | 101 | 0.0007 | 16.5 | 0.7 |  |  |  |  |
| mAb14312 (antibody) heavy: not shown light: QSVLTQPPSVSGAPGQRVTISCTGSSSNIGAGDDVHWYQQLPGTAPKLLIYGNSNRPSGVPDRFSGSKSGTSASLAITGLQAEDEADYYCQSYDSSLSGSVVFGGGTKLTVLGQPKAAPSVTLFPPSSEELQANKATLVCLISDFYPGAVTVAWKADSSPVKAGVETTTPSKQSNNKYAASSYLSLTPEQWKSHRSYSCQVTHEGSTVEKTVAPTECS | 95.2 | 0.000859 | 1.68e-10 | 2 | 7.5 | 96.7 | 0.00558 | 2.1 | 6.4 |  |  |  | 1.84e-08 |
